For one test, the target named is T1, Human TROP2 Full length (human, UniProt P09758 31-323).
T1 sequence: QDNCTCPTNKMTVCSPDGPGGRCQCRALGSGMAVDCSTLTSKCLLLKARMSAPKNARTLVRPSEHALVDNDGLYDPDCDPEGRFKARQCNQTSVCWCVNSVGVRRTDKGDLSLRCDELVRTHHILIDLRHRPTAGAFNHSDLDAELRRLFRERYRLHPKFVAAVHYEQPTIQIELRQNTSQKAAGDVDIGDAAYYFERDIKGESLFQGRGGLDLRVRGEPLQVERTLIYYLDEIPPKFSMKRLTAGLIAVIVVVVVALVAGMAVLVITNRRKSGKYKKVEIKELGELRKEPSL
As to the kind of experiment: cell-based or functional assay.

A further test addresses T2, Cyno TROP2 Full length (cynomolgus monkey, UniProt P09758 31-323 (human entry)).
T2 chain: T1 sequence with M32V, S63N, I200V, M262V, T268S
As to the kind of experiment: cell-based or functional assay.

For test [1], the target named is T3, Human TROP2 ECD (31-274 AA), biotinylated (human, UniProt P09758 31-274, biotinylated (site not stated)).
T3 construct: also called tumor-associated calcium signal transducer 2; Human TROP2-biotin
T3 sequence: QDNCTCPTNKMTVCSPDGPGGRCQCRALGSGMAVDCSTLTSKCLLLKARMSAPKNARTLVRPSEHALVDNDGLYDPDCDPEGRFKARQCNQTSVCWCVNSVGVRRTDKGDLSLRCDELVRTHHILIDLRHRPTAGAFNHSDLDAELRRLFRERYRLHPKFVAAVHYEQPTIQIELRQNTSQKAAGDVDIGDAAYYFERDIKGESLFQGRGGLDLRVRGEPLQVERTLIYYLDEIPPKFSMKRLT
As to the kind of experiment: ELISA on immobilized TROP2; binder pre-treated with MTSP1. On the technique in general: ELISA stands for enzyme-linked immunosorbent assay.

Test [2] deals with T3, Human TROP2 ECD (31-274 AA), …. Described as above. This is another data set of the same source.
Test [3] has as its target T4, Human TROP2 ECD (31-274 AA), biotinylated (human, UniProt P09758 31-274, biotinylated (site not stated)).
T4 construct: also called TROP2-biotin; Trop2-biotin
T4 sequence: T3 sequence
Nature of the test: ELISA, captured biotin-TROP2.

In another test the target is T5, Peptide-70 (cysteine pairing not given here; also: biotinylated, site not given here).
T5 construct: mask peptide for the CD3 scFv
T5 peptide: YLCGPDGDETLACY
As to the kind of experiment: ELISA, TCE on captured biotin-peptide.

The target in the next test is T6, Peptide-73 (cysteine pairing not given here; also: biotinylated, site not given here).
T6 construct: mask peptide for the CD3 scFv
T6 peptide: VYCGPEFDESVGCA
As to the kind of experiment: ELISA, TCE on captured biotin-peptide.

The target in the next test is T7, Peptide-76 (cysteine pairing not given here; also: biotinylated, site not given here).
T7 construct: mask peptide for the CD3 scFv
T7 peptide: YLCGPDADETLACY
Nature of the test: ELISA, TCE on captured biotin-peptide.

A further test addresses T8, Peptide-77 (cysteine pairing not given here; also: biotinylated, site not given here).
T8 construct: mask peptide for the CD3 scFv
T8 peptide: YLCGPDTDETLACY
Nature of the test: ELISA, TCE on captured biotin-peptide.

The target in test [4] is T3, Human TROP2 ECD (31-274 AA), …. As to the kind of experiment: ELISA on immobilized TROP2.
In test [5] the target is T9, CD3 (biotinylated CD3 antigen) (human, UniProt P07766 23-126, limits assumed, biotinylated (site not stated)).
T9 construct: also called CD3ε; human CD3
As to the kind of experiment: ELISA, captured biotin-CD3.

The target in test [6] is T4, Human TROP2 ECD (31-274 AA), …. As to the kind of experiment: ELISA, captured biotin-TROP2. The source holds these as a separate data set.

Positions count from the first letter of the chain named. Numbers in names are those of the source. Where no end group is shown, it is not given here.

T9 sequence (P07766 23-126 limits assumed): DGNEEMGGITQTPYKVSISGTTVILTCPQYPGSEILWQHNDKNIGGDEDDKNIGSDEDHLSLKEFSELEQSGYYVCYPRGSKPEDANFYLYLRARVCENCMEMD

B1: TCE-8 (bispecific antibody)
light: DIQLTQSPSSLSASVGDRVSITCKASQDVSIAVAWYQQKPGKAPKLLIYSASYRYTGVPDRFSGSGSGTDFTLTISSLQPEDFAVYYCQQHYITPLTFGAGTKVEIKRTVAAPSVFIFPPSDEQLKSGTASVVCLLNNFYPREAKVQWKVDNALQSGNSQESVTEQDSKDSTYSLSSTLTLSKADYEKHKVYACEVTHQGLSSPVTKSFNRGEC
heavy: not shown
As to B1, the “HCT116 Cytotoxicity EC50 (pM)” value with Human TROP2 Full length is 83 pM. For the same molecule, the “CyTROP2 HEK293 EC50 (pM)” value in the test with Cyno TROP2 Full length was 0.1 pM.

B2: PC-5 + MTSP1 (bispecific antibody)
light: B1 light
chain: not shown
modifications: Protease-treated product: both masks and the anti-albumin domain are cut off in the cleavable linkers.
notes: not shown: The few linker residues left at the N-terminus of each chain after the MTSP1 cut
What is called EC50 is the concentration giving half of the maximal effect. Turning to B2, the EC50 in test [1] came out at 0.25 nM.

B3: PC-1 + MTSP1 (bispecific antibody)
light: B1 light
chain: not shown
modifications: Protease-treated product: both masks and the anti-albumin domain are cut off in the cleavable linkers.
notes: as for B2
With B3, the EC50 in test [2] came to 0.48 nM.

B4: TCE-39 (anti-CD3 scFv P41S, A49G, N87S, L150F, T151S, G163R, P175A, K181T, T200V, A202D, L208I, G211N, L217I, S218T, V220A, P222A, E223D, A226S, E227D; … (bispecific antibody)
light: B1 light
heavy: EVQLVESGGGLVQPGGSLKLSCAASGFTFNKYAMNWVRQASGKGLEWVGRIRSKYNNYATYYADSVKDRFTISRDDSKNTAYLQMNSLKTEDTAVYYCVRHGNFGNSYISYWAYWGQGTLVTVSSGGGGSGGGGSGGGGSQTVVTQEPSFSVSPGGTVTLTCRSSTGAVTSGNYANWVQQTPGQAPRGLIGGTKFLAPGVPDRFSGSILGNKAALTITGAQADDESDYYCVLWYSNRWVFGGGTKLTVLGGGGSQVQLQQSGSELKKPGASVKVSCKASGYTFTNYGMNWVKQAPGQGLKWMGWINTYTGEPTYTDDFKGRFAFSLDTSVSTAYLQISSLKADDTAVYFCARGGFGSSYWYADVWGQGSLVTVSSASTKGPSVFPLAPSSKSTSGGTAALGCLVKDYFPEPVTVSWNSGALTSGVHTFPAVLQSSGLYSLSSVVTVPSSSLGTQTYICNVNHKPSNTKVDKKVEPKSC
notes: scFv on the Fab heavy chain
Consider B4, for which the EC50 turned out to be 5.92 nM in test [3]; 0.33 nM with Peptide-70; 0.41 nM with Peptide-73; 1.39 nM in the test with Peptide-76; 18.8 nM with Peptide-77.

B5: PC-1 (bispecific antibody)
light: GGVDFCKIYSWPVCHQGGGGSGGLSGRSDAGSPLGLAGSGGSDIQLTQSPSSLSASVGDRVSITCKASQDVSIAVAWYQQKPGKAPKLLIYSASYRYTGVPDRFSGSGSGTDFTLTISSLQPEDFAVYYCQQHYITPLTFGAGTKVEIKRTVAAPSVFIFPPSDEQLKSGTASVVCLLNNFYPREAKVQWKVDNALQSGNSQESVTEQDSKDSTYSLSSTLTLSKADYEKHKVYACEVTHQGLSSPVTKSFNRGEC
heavy: not shown
notes: anti-TROP2 wt
B5: the 50% effective concentration (EC50) in test [4] was 49.4 nM.

B6: PC-31 (anti-TROP2 D109A; anti-CD3 F104A), masked polypeptide complex (bispecific antibody)
light: B5 light with K7G, I8L, S10H, V13I, H15Y
heavy: not shown
notes: LC: TROP2 mask peptide + cleavable linker + anti-TROP2 LC; HC: anti-albumin single domain + CD3 mask peptide + cleavable linker + anti-CD3 scFv + anti-TROP2 Fab HC
For B6, the EC50 in test [5] was 1080 nM; in test [6], 694 nM.

The values are drawn from patent US20230357429A1 (JANUX THERAPEUTICS, published 2023).
